What was measured:
[1] = biological target: SMC2 (in recombinant human condensin II) (human, UniProt O95347 1-1197); assay: cryo-EM structure
[2] = biological target: T1, CAP-G2 (in recombinant human condensin II) (human, UniProt Q86XI2 1-1143); assay: cryo-EM structure
T1 sequence: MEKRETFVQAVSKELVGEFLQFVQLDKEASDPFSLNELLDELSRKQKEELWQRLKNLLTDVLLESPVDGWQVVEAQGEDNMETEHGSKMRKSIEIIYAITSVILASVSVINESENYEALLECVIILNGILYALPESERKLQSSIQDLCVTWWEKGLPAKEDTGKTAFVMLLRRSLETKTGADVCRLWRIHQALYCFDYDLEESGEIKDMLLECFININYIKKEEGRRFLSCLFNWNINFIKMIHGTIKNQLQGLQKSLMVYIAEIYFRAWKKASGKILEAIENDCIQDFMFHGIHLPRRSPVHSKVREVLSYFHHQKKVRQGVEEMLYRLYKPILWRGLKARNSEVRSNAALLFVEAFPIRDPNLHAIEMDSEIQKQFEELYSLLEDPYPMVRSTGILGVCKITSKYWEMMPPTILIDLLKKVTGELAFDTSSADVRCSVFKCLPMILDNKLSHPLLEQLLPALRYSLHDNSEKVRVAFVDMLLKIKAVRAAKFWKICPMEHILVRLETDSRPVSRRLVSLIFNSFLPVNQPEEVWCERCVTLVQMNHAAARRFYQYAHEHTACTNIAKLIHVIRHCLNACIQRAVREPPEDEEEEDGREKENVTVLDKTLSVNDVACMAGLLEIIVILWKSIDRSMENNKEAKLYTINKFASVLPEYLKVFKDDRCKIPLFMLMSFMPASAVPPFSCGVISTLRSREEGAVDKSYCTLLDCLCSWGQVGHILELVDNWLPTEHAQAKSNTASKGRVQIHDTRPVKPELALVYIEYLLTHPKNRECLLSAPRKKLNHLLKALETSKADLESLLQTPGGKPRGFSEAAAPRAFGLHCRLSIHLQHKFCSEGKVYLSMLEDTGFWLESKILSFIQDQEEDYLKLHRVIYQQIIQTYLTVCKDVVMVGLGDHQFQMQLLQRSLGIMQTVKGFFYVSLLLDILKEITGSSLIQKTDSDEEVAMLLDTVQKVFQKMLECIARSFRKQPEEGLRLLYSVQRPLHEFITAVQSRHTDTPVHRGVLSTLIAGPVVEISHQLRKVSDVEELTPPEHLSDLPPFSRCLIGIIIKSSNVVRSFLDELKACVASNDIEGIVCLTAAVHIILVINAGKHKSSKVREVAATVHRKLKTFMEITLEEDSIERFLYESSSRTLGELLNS

[3] = biological target: SMC4 (in recombinant human condensin II) (human, UniProt Q9NTJ3 2-1288); assay: cryo-EM structure
Sequence of SMC4 (in recombinant human condensin II) (Q9NTJ3 2-1288): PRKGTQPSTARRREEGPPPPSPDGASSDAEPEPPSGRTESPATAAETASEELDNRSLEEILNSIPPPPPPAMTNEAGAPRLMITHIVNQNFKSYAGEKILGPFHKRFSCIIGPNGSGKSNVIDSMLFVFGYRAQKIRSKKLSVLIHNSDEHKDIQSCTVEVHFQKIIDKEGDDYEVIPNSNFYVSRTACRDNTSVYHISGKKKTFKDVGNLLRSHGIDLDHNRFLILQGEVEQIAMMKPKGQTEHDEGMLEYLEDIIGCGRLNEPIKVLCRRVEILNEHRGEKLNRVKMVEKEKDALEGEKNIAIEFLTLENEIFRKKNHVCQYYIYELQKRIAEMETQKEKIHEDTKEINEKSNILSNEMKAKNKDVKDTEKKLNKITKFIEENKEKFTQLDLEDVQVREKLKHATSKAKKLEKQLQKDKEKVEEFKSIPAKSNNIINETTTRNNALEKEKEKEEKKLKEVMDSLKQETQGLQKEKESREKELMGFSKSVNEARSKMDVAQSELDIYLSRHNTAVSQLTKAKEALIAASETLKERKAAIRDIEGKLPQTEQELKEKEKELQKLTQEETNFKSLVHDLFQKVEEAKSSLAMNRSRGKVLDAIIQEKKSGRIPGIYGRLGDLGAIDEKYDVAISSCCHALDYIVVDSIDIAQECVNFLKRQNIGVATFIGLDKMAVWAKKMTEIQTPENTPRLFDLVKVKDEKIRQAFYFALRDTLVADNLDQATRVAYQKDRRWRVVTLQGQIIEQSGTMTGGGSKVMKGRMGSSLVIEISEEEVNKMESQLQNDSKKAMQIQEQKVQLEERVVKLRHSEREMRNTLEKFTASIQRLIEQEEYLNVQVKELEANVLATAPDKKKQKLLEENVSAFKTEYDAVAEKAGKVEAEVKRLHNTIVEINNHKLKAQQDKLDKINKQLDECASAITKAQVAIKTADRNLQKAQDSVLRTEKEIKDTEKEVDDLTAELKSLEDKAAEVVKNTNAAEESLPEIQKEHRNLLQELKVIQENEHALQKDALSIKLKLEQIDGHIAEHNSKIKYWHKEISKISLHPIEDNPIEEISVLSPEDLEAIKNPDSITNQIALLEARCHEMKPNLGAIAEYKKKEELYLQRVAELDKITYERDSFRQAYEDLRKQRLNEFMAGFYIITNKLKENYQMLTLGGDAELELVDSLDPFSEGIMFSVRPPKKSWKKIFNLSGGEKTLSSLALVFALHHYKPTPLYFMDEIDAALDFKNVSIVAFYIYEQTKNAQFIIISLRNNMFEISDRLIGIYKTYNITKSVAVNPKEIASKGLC

[4] = biological target: T2, CAP-D3 (in recombinant human condensin II) (human, UniProt P42695 1-1498); assay: cryo-EM structure
T2 sequence: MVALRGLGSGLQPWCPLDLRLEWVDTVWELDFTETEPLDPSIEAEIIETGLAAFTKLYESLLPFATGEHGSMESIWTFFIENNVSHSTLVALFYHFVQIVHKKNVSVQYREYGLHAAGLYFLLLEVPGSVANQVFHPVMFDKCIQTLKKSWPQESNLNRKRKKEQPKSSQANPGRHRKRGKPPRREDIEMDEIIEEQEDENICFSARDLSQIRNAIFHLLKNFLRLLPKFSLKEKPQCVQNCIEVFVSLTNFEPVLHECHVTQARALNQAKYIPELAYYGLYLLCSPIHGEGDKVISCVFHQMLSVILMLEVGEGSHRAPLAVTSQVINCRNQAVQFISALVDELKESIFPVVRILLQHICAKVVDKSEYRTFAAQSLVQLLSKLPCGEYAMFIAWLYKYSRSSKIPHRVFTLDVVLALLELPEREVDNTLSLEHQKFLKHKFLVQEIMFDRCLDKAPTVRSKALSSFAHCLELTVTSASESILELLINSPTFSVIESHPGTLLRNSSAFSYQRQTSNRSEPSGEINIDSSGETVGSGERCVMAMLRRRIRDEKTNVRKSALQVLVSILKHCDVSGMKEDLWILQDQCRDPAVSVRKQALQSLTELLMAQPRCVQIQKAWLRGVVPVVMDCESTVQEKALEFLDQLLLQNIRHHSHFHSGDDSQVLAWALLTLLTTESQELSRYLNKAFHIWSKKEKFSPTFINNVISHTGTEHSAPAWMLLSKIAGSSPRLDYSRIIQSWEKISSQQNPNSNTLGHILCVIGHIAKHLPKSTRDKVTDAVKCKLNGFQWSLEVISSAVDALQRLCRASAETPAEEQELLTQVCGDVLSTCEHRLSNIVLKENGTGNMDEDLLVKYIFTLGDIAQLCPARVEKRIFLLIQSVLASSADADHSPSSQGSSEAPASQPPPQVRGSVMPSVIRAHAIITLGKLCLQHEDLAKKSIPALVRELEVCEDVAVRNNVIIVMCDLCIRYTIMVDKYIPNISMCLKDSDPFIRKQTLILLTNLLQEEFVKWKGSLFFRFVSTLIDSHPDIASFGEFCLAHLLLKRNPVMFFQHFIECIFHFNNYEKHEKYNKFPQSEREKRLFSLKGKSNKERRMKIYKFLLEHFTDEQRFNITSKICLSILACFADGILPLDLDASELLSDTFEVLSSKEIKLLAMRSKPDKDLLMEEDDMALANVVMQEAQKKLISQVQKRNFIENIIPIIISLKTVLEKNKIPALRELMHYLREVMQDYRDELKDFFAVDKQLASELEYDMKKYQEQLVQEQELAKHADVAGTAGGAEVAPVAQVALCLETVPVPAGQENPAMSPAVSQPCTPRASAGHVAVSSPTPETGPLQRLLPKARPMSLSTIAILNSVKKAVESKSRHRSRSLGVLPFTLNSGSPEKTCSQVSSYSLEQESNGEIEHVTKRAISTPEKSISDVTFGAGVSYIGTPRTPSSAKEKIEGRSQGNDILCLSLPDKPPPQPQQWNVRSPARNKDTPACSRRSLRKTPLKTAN

[5] = biological target: condensin II pentamer (recombinant, human) (human, UniProt O95347;Q9NTJ3;Q6IBW4;P42695;Q86XI2); assay: cross-linking
Sequence of condensin II pentamer (recombinant, human) (O95347 whole entry, chain 1 of 2): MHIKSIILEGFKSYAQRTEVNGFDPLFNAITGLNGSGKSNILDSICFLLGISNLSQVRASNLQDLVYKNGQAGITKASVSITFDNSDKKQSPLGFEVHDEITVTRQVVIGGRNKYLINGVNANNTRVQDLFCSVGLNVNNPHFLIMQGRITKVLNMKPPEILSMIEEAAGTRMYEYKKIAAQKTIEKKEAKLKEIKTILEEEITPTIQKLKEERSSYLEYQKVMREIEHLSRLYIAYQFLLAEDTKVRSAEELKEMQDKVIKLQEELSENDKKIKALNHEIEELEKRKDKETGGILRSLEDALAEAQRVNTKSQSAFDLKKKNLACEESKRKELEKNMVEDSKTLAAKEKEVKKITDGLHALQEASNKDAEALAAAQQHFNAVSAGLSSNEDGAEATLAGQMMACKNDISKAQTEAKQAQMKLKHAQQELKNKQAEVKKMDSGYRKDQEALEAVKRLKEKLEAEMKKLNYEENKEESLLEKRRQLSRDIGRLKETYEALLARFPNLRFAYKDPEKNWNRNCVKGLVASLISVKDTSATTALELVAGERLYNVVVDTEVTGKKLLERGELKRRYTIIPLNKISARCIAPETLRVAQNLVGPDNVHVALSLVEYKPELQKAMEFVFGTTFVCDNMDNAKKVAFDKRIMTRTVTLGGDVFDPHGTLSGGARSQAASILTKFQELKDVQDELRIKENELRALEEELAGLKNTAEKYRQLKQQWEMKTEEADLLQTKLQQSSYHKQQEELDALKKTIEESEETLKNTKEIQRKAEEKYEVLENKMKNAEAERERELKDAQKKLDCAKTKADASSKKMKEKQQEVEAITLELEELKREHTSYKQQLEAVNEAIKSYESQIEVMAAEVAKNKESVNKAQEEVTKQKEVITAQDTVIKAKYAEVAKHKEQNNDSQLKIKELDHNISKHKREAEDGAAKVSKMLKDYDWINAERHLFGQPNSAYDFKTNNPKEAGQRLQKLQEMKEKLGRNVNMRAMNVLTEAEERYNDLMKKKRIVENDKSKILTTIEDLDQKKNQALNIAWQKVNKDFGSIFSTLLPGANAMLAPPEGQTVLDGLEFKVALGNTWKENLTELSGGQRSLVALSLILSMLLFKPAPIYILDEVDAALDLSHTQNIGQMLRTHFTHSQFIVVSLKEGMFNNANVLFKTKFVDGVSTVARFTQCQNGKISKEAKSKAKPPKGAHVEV
Sequence of condensin II pentamer (recombinant, human) (Q9NTJ3 2-1288, chain 2 of 2): as the sequence (Q9NTJ3 2-1288) above

[6] = biological target: T1, CAP-G2 (in recombinant human condensin …); assay: cross-linking

Measured: binding result

Sequence of SMC2 (in recombinant human condensin II) (O95347 whole entry): as the sequence (O95347 whole entry, chain 1 of 2) above

B1: CAP-H2 (in recombinant human condensin II) (natural protein)
chain: MEDVEARFAHLLQPIRDLTKNWEVDVAAQLGEYLEELDQICISFDEGKTTMNFIEAALLIQGSACVYSKKVEYLYSLVYQALDFISGKRRAKQLSSVQEDRANGVASSGVPQEAENEFLSLDDFPDSRTNVDLKNDQTPSEVLIIPLLPMALVAPDEMEKNNNPLYSRQGEVLASRKDFRMNTCVPHPRGAFMLEPEGMSPMEPAGVSPMPGTQKDTGRTEEQPMEVSVCRSPVPALGFSQEPGPSPEGPMPLGGGEDEDAEEAVELPEASAPKAALEPKESRSPQQSAALPRRYMLREREGAPEPASCVKETPDPWQSLDPFDSLESKPFKKGRPYSVPPCVEEALGQKRKRKGAAKLQDFHQWYLAAYADHADSRRLRRKGPSFADMEVLYWTHVKEQLETLRKLQRREVAEQWLRPAEEDHLEDSLEDLGAADDFLEPEEYMEPEGADPREAADLDAVPMSLSYEELVRRNVELFIATSQKFVQETELSQRIRDWEDTVQPLLQEQEQHVPFDIHTYGDQLVSRFPQLNEWCPFAELVAGQPAFEVCRSMLASLQLANDYTVEITQQPGLEMAVDTMSLRLLTHQRAHKRFQTYAAPSMAQP
binds: [1] | [2] | [3] | [4]

B2: MBP-MCPH1_(1-435) (domain or fragment)
chain: MAAPILKDVVAYVEVWSSNGTENYSKTFTTQLVDMGAKVSKTFNKQVTHVIFKDGYQSTWDKAQKRGVKLVSVLWVEKCRTAGAHIDESLFPAANMNEHLSSLIKKKRKCMQPKDFNFKTPENDKRFQKKFEKMAKELQRQKTNLDDDVPILLFESNGSLIYTPTIEINSRHHSAMEKRLQEMKEKRENLSPTSSQMIQQSHDNPSNSLCEAPLNISRDTLCSDEYFAGGLHSSFDDLCGNSGCGNQERKLEGSINDIKSDVCISSLVLKANNIHSSPSFTHLDKSSPQKFLSNLSKEEINLQRNIAGKVVTPDQKQAAGMSQETFEEKYRLSPTLSSTKGHLLIHSRPRSSSVKRKRVSHGSHSPPKEKCKRKRSTRRSIMPRLQLCRSEDRLQHVAGPALEALSCGESSYDDYFSPDNLKERYSENLPPESQL
binds: [5] | [6]

Reference: article doi:10.1101/2024.05.02.592151 (bioRxiv, 2024)
